Consider 27 sequences from the supplement of paper PMC10724198.

The test system of this series is Saccharomyces cerevisiae. Description: protein stability index of tFT-peptide fusion (C-terminal peptide) (PSI (0-1 scale)); higher = more stable (slower turnover). As to conditions: temperature: 30 C. As for the experimental part: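 MPS profiling in S. cerevisiae of the yeast C-terminome library: the last 12 aa of each annotated ORF are fused to the C-terminus of a sfGFP-mCherry timer, after a GGGS linker. Cells are FACS-sorted into 8 mCherry/sfGFP bins and deep-sequenced. PSI runs from 0 (unstable) to 1 (stable); wild type and das1Δ backgrounds, two technical replicates each.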

Where [1] appears, read: genetic background: das1 deletion.

± gives the standard deviation of the averaged measurements.

On to “HQNENMFLTELY [YDL247W-A C-terminal 12 aa]”, for which the protein stability index is 0.7214 ± 0.0031 under setting [1] and 0.707 ± 0.067 (genetic background: wild type).
On to “HTRQGNITQTKY [YKL100W-A C-terminal 12 aa]”, for which the protein stability index reads like this: under setting [1], 0.698 ± 0.017; (genetic background: wild type) 0.692 ± 0.043.
In the case of HYEAVRANFEGA [PEX6 C-terminal 12 aa], the protein stability index under setting [1] came to 0.7023 ± 0.0047 and the protein stability index (genetic background: wild type) stood at 0.724 ± 0.012.
Regarding IADASSLSWNMK [LEM3 C-terminal 12 aa], the protein stability index is, setting by setting: under setting [1], 0.697 ± 0.038; (genetic background: wild type) 0.719 ± 0.011.
For IAEIASAVDKYS [MHT1 C-terminal 12 aa] the same measures were 0.7183 ± 0.0018 and 0.726 ± 0.047.
On to IAIGFGVGITRE [BUD8 C-terminal 12 aa], for which the protein stability index is 0.688 ± 0.035 under setting [1] and 0.739 ± 0.022 (genetic background: wild type).
With IARPFELKYFGR [FCY21 C-terminal 12 aa], the protein stability index came out at 0.7199 ± 0.006 under setting [1] and 0.718 ± 0.001 (genetic background: wild type).
With IATIENKFDFEI [YCR099C C-terminal 12 aa], the protein stability index reads like this: under setting [1], 0.712 ± 0.013; (genetic background: wild type) 0.694 ± 0.042.
As for IAVNYCMFGRSY [YHR020W C-terminal 12 aa], the protein stability index amounted to 0.685 ± 0.022 under setting [1] and 0.73 ± 0.061 (genetic background: wild type).
For the sequence “ICFREFFDRVET [YJL077W-B C-terminal 12 aa]”, the protein stability index was 0.714 ± 0.056 under setting [1] and 0.6732 ± 0.0058 (genetic background: wild type).
For IDFLVEEATLNE [YAP3 C-terminal 12 aa] the same measures were 0.70065 ± 9.1e-05 and 0.673 ± 0.032.
Regarding IEAATQAFLDSQ [WIP1 C-terminal 12 aa], the protein stability index runs as follows: under setting [1], 0.698 ± 0.013; (genetic background: wild type) 0.715 ± 0.051.
As for IERLFKEEEYYS [TCD1 C-terminal 12 aa], the protein stability index reads like this: under setting [1], 0.70198 ± 0.00056; (genetic background: wild type) 0.703 ± 0.011.
As for IGIGFGVGIIRE [BUD9 C-terminal 12 aa], the protein stability index was 0.698 ± 0.052 under setting [1] and 0.686 ± 0.036 (genetic background: wild type).
Regarding IIQDNISPRLVV [RRP46 C-terminal 12 aa], the protein stability index was 0.661 ± 0.034 under setting [1] and 0.665 ± 0.017 (genetic background: wild type).
IIQKETQSAGDK [PZF1 C-terminal 12 aa]: the protein stability index by setting is: under setting [1], 0.661 ± 0.013; (genetic background: wild type) 0.678 ± 0.024.
Turning to IKGKFYVKILGN [YGR115C C-terminal 12 aa], the protein stability index is, setting by setting: under setting [1], 0.635 ± 0.036; (genetic background: wild type) 0.648 ± 0.012.
IKIFSERCDGKV [JJJ2 C-terminal 12 aa] registered a protein stability index under setting [1] of 0.7066 ± 0.002 and a protein stability index (genetic background: wild type) of 0.683 ± 0.0069.
Regarding “IKLLKTHNRMSL [YNL277W-A C-terminal 12 aa]”, the protein stability index by setting is: under setting [1], 0.6846 ± 0.0031; (genetic background: wild type) 0.696 ± 0.036.
IKNRLNGLKYRL [YML020W C-terminal 12 aa]: the protein stability index under setting [1] was determined as 0.751 ± 0.0083 and the protein stability index (genetic background: wild type) turned out to be 0.6784 ± 0.0056.
For ILAENEIEVSRG [FET5 C-terminal 12 aa] the same measures were 0.7042 ± 0.00013 and 0.705 ± 0.0081.
As to ILERRLNEDHDC [KXD1 C-terminal 12 aa], the protein stability index runs as follows: under setting [1], 0.696 ± 0.025; (genetic background: wild type) 0.6885 ± 0.0056.
On to ILILFTSINQRG [YOR366W C-terminal 12 aa], for which the protein stability index under setting [1] turned out to be 0.589 ± 0.037 and the protein stability index (genetic background: wild type) came out at 0.605 ± 0.039.
For ILMNEFAFNPKV [LEU3 C-terminal 12 aa] the same measures were 0.728 ± 0.027 and 0.708 ± 0.044.
Take ILTQGGHIIKKK [MNL2 C-terminal 12 aa]: the protein stability index turned out to be 0.715 ± 0.017 under setting [1] and 0.6938 ± 0.0012 (genetic background: wild type).
IMDKLRAMKNRM [GLO2 C-terminal 12 aa]: the protein stability index is, setting by setting: under setting [1], 0.689 ± 0.053; (genetic background: wild type) 0.663 ± 0.032.
Take “IMSTASAQFVGN [YIR018C-A C-terminal 12 aa]”: the protein stability index reads like this: under setting [1], 0.687 ± 0.011; (genetic background: wild type) 0.664 ± 0.0089.
